T1: human SLC34A2 (human, UniProt O95436 1-690)
T1 construct: whole, on cells; also called human solute carrier 34 A2; NaPi2b
T1 sequence (looked up): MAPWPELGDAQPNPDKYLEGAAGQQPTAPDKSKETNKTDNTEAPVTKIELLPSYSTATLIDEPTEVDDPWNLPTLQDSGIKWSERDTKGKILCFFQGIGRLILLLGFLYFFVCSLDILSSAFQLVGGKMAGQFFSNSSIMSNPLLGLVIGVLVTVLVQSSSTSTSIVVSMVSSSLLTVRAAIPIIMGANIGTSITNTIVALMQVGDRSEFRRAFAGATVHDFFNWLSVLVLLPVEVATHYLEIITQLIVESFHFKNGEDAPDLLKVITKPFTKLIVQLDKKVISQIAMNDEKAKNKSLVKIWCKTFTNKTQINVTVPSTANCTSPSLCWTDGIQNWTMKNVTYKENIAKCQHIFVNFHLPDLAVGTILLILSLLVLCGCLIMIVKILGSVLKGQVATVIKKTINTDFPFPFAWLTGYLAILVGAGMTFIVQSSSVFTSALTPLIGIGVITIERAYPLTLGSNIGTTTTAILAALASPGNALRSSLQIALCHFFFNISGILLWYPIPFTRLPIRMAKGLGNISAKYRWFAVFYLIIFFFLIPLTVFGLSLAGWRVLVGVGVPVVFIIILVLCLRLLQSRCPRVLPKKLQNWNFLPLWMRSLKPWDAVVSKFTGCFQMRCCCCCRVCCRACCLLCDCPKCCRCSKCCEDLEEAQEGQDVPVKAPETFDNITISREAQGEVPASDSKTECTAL


Tests used:
human SLC34A2 [1] = molecular target: T1, human SLC34A2; assay: FACS, OVCAR3 cells
Method: In this example, cell based binding of chimeric antibodies (hIgG1) prepared from the murine antibodies on human SLC34A2 expressing cells were assessed using flow cytometry.
(§1) Briefly, OVCAR3 cells or HEK293 cells expressing human SLC34A2 were incubated with chimeric antibodies (from 200 nM, 4 folds dilution, 8 points). After incubation at 4° C. for 60 minutes, the cells were washed with FACS buffer twice, then stained with fluorescent conjugated secondary antibody at 4° C. for 30 minutes. After that the cells were washed twice and analyzed by flow cytometry.

human SLC34A2 [2] = molecular target: T1, human SLC34A2; assay: FACS, HEK293/human SLC34A2 cells
Method: as §1

human SLC34A2 [3] = molecular target: T1, human SLC34A2; assay: FACS, OVCAR3 cells; remark: listed apart in the source

| Binder | EC50 (human SLC34A2 [1]) [nM] | Top (MFI) (human SLC34A2 [1]) | EC50 (human SLC34A2 [2]) [nM] | Top (MFI) (human SLC34A2 [2]) | EC50 (human SLC34A2 [3]) [nM] | Top (MFI) (human SLC34A2 [3]) |
| --- | --- | --- | --- | --- | --- | --- |
| xi25B11B9 hIgG1 (antibody, V domains shown, chimeric, hIgG1) VH: DVKLVESGGGLVRLGGSLKLSCAASGFTFSSHYMSWVRQTPKKRLELVATINSSGGNTYYPDTVKGRFTISRDNARNTLFLQMTSLKSEDTALYYCARQPINTVAYFDYWGQGTTLTVSS VL: DIVMTQSHEFMSTSVGARVSITCKASQDLTTAVAWYQQKPGQSPKLLIYWASTRHIGVPDRFTGSGSGADYTLTISSVQAEDLALYYCQQYHSTPLTFGAGTKLELK | 9.06 | 42500 | 2.51 | 106000 | – | – |
| xi67C9G11 hIgG1 (antibody, V domains shown, chimeric, hIgG1) VH: DVKLVESGGGLVKLGGSLKLSCAASGFTFSSYFMSWIRQTPEKRVDLVAVINSNGGSTYSPDTVKGRFTISRDNAKNTLYLQMTSLKSEDTALYYCARHFYSYDGAWFPYWGQGTLVTVSA VL: DIVMTQSHKFMSTLVGDRVSITCKASQDVSTSVAWYQQKPGQSPKLLIYWASTRHTGVPDRFTGSGSGTDFTLTISSVQAEDLALYYCQQHHSTPITFGVGTKLELK | 4.67 | 41000 | 2.82 | 107000 | – | – |
| 63A11D5B4.p1.z6 hIgG1 (antibody, V domains shown, humanized hIgG1) VH: QVQLVQSGAEVKKPGASVKVSCKTSGYTFITYNMHWVRQAPGQGLEWIGAIYPGSGDTSYNQKFKGRVTMTADTSTSTVYMELSSLRSEDTAVYYCSISTIITTGAVDYWGQGTLVTVSS VL: DIQMTQSPSSLSTSVGDRVTITCKASQDVGTAVAWYQQKPGKSPKLLIYWTSTRHTGVPSRFSGSGSGTDFTLIISSLQPEDVATYYCQQYSRIPLTFGGGTKVEIK | – | – | – | – | 36.8 | 34600 |
| 63A11D5B4.p1.z13 hIgG1 (antibody, V domains shown, humanized hIgG1) VH: QVQLQQSGAEVVKPGASVKMSCKTSGYTFITYNMHWVKQAPGQGREWIGAIYPGSGDTSYNQKFKGRATLTADKSTSTAYMELSSLRSEDTAVYYCSISTIITTGAVDYWGQGTSVTVSS VL: DIQMTQSPSSLSASVGDRVTITCKASQDVGTAVAWYQQKPGKVPKLLIYWTSTRHTGVPSRFSGSGSGTDFTLTISSLQPEDVATYYCQQYSRIPLTFGGGTKVEIK | – | – | – | – | 16.4 | 32600 |
| 63A11D5B4.p1.z8 hIgG1 (antibody, V domains shown, humanized hIgG1) VH: QVQLVQSGAEVKKPGASVKVSCKTSGYTFITYNMHWVRQAPGQGLEWIGAIYPGSGDTSYNQKFKGRVTMTADTSTSTVYMELSSLRSEDTAVYYCSISTIITTGAVDYWGQGTLVTVSS VL: DIVMTQSPSSLSTSVGDRVTITCKASQDVGTAVAWYQQKPGQSPKLLIYWTSTRHTGVPDRFTGSGSGTDFTLIIRSLQPEDVATYFCQQYSRIPLTFGSGTKVEIK | – | – | – | – | 14.2 | 27900 |
| 63A11D5B4.p1.z11 hIgG1 (antibody, V domains shown, humanized hIgG1) VH: QVQLVQSGAEVVKPGASVKMSCKTSGYTFITYNMHWVRQAPGQGLEWIGAIYPGSGDTSYNQKFKGRVTLTADKSTSTAYMELSSLRSEDTAVYYCSISTIITTGAVDYWGQGTLVTVSS VL: DIQMTQSPSSLSTSVGDRVTITCKASQDVGTAVAWYQQKPGQSPKLLIYWTSTRHTGVPDRFSGSGSGTDFTLIIRSLQPEDVATYFCQQYSRIPLTFGGGTKVEIK | – | – | – | – | 10.3 | 27700 |
| 63A11D5B4.p1.z12 hIgG1 (antibody, V domains shown, humanized hIgG1) VH: QVQLVQSGAEVVKPGASVKMSCKTSGYTFITYNMHWVRQAPGQGLEWIGAIYPGSGDTSYNQKFKGRVTLTADKSTSTAYMELSSLRSEDTAVYYCSISTIITTGAVDYWGQGTLVTVSS VL: DIVMTQSPSSLSTSVGDRVTITCKASQDVGTAVAWYQQKPGQSPKLLIYWTSTRHTGVPDRFTGSGSGTDFTLIIRSLQPEDVATYFCQQYSRIPLTFGSGTKVEIK | – | – | – | – | 11.7 | 31700 |
| 63A11D5B4.p1.z2 hIgG1 (antibody, V domains shown, humanized hIgG1) VH: QVQLVQSGAEVKKPGASVKVSCKASGYTFITYNMHWVRQAPGQGLEWMGAIYPGSGDTSYNQKFKGRVTMTRDTSTSTVYMELSSLRSEDTAVYYCASSTIITTGAVDYWGQGTLVTVSS VL: DIQMTQSPSSLSTSVGDRVTITCKASQDVGTAVAWYQQKPGKSPKLLIYWTSTRHTGVPSRFSGSGSGTDFTLIISSLQPEDVATYYCQQYSRIPLTFGGGTKVEIK | – | – | – | – | 20.6 | 28700 |
| 63A11D5B4.p1.z10 hIgG1 (antibody, V domains shown, humanized hIgG1) VH: QVQLVQSGAEVVKPGASVKMSCKTSGYTFITYNMHWVRQAPGQGLEWIGAIYPGSGDTSYNQKFKGRVTLTADKSTSTAYMELSSLRSEDTAVYYCSISTIITTGAVDYWGQGTLVTVSS VL: DIQMTQSPSSLSTSVGDRVTITCKASQDVGTAVAWYQQKPGKSPKLLIYWTSTRHTGVPSRFSGSGSGTDFTLIISSLQPEDVATYYCQQYSRIPLTFGGGTKVEIK | – | – | – | – | 12.3 | 29800 |

More lines, now with the values ahead:

| EC50 (human SLC34A2 [1]) [nM] | Top (MFI) (human SLC34A2 [1]) | EC50 (human SLC34A2 [2]) [nM] | Top (MFI) (human SLC34A2 [2]) | EC50 (human SLC34A2 [3]) [nM] | Top (MFI) (human SLC34A2 [3]) | Binder |
| --- | --- | --- | --- | --- | --- | --- |
| 4.9 | 41300 | 1.92 | 111000 | – | – | xi11F6H8 hIgG1 (antibody, V domains shown, chimeric, hIgG1) VH: EVQLQQSGPELVKPGASVKISCKTSGFTFTEYTMHWVKQSHGKSLEWIGGINPNNGISSYNQNFKGKATLTVDKSSSTAYMELRSLTSEDSTVYYCARCRYYDTSYYDMDYWGQGTSVTVSS VL: DIQMTQTTSSLSASLGDRVTISCRASQDIRNFLNWYQQKPDGTVKLLIYYTSRLHSGVPSRFSGSGSGTDYSLTISNLEEEDIATYFCQQSNTLPWTFGGGTKLEIK |
| 1.68 | 39600 | 1.72 | 109000 | – | – | xi7G10E11 hIgG1 (antibody, V domains shown, chimeric, hIgG1) VH: DVKLVESGGGLIKLGGSLKLSCAASGFTFSGYYMSWFRQTPEKRLELVAVINSNGGSTYYAVTVKGRFTISRDNAKNTLYLQMSSLKSEDTALYYCARHEGSQAWFAHWGQGTLVTVSA VL: DIVMTQSHKFMSTSVGDRVSITCKASQDVTTAVAWYQQKPGQSPKLLIYWASTRHTGVPDRFTGSGSGTDYTLTISSVQAEDLALYYCQQHHSTPLTFGAGTKLELK |
| 408 | 29500 | 378 | 128000 | – | – | xi62C10B3D2 hIgG1 (antibody, V domains shown, chimeric, hIgG1) VH: QVHQQQSGPELVKPGASVRISCKASGYTFTSYYIHWVKQRPGQGLEWIGCIYPGNLFTKYNEKFKDKATLTADTSSTTAYMHLSSLTSEDSAVYFCARFLNWNAWYFDVWGAGTTVSVSS VL: DVLMTQTPLSLPVSLGDQASISCRSSQSIEHSNGNTNLEWYLQKPGQSPRLLIYKVSNRFSGVPDRFSGSGSGTDFTLKITGVEAEDLGVYYCFQGSHFPWTFGGGTKLEIK |
| – | – | – | – | 16.1 | 32600 | 63A11D5B4.p1.z14 hIgG1 (antibody, V domains shown, humanized hIgG1) VH: QVQLQQSGAEVVKPGASVKMSCKTSGYTFITYNMHWVKQAPGQGREWIGAIYPGSGDTSYNQKFKGRATLTADKSTSTAYMELSSLRSEDTAVYYCSISTIITTGAVDYWGQGTSVTVSS VL: DIQMTQSPSSLSTSVGDRVTITCKASQDVGTAVAWYQQKPGKSPKLLIYWTSTRHTGVPSRFSGSGSGTDFTLIISSLQPEDVATYYCQQYSRIPLTFGGGTKVEIK |
| – | – | – | – | 17.9 | 28600 | 63A11D5B4.p1.z3 hIgG1 (antibody, V domains shown, humanized hIgG1) VH: QVQLVQSGAEVKKPGASVKVSCKASGYTFITYNMHWVRQAPGQGLEWMGAIYPGSGDTSYNQKFKGRVTMTRDTSTSTVYMELSSLRSEDTAVYYCASSTIITTGAVDYWGQGTLVTVSS VL: DIQMTQSPSSLSTSVGDRVTITCKASQDVGTAVAWYQQKPGQSPKLLIYWTSTRHTGVPDRFSGSGSGTDFTLIIRSLQPEDVATYFCQQYSRIPLTFGGGTKVEIK |
| – | – | – | – | 61.1 | 41000 | 63A11D5B4.p1.z7 hIgG1 (antibody, V domains shown, humanized hIgG1) VH: QVQLVQSGAEVKKPGASVKVSCKTSGYTFITYNMHWVRQAPGQGLEWIGAIYPGSGDTSYNQKFKGRVTMTADTSTSTVYMELSSLRSEDTAVYYCSISTIITTGAVDYWGQGTLVTVSS VL: DIQMTQSPSSLSTSVGDRVTITCKASQDVGTAVAWYQQKPGQSPKLLIYWTSTRHTGVPDRFSGSGSGTDFTLIIRSLQPEDVATYFCQQYSRIPLTFGGGTKVEIK |
| – | – | – | – | 18.1 | 29000 | 63A11D5B4.p1.z4 hIgG1 (antibody, V domains shown, humanized hIgG1) VH: QVQLVQSGAEVKKPGASVKVSCKASGYTFITYNMHWVRQAPGQGLEWMGAIYPGSGDTSYNQKFKGRVTMTRDTSTSTVYMELSSLRSEDTAVYYCASSTIITTGAVDYWGQGTLVTVSS VL: DIVMTQSPSSLSTSVGDRVTITCKASQDVGTAVAWYQQKPGQSPKLLIYWTSTRHTGVPDRFTGSGSGTDFTLIIRSLQPEDVATYFCQQYSRIPLTFGSGTKVEIK |
| – | – | – | – | 19.6 | 28000 | 63A11D5B4.p1.z1 hIgG1 (antibody, V domains shown, humanized hIgG1) VH: QVQLVQSGAEVKKPGASVKVSCKASGYTFITYNMHWVRQAPGQGLEWMGAIYPGSGDTSYNQKFKGRVTMTRDTSTSTVYMELSSLRSEDTAVYYCASSTIITTGAVDYWGQGTLVTVSS VL: DIQMTQSPSSLSASVGDRVTITCKASQDVGTAVAWYQQKPGKVPKLLIYWTSTRHTGVPSRFSGSGSGTDFTLTISSLQPEDVATYYCQQYSRIPLTFGGGTKVEIK |
